Test results as given in patent publication US20260070976A1 (Alector, published 2026).

How the values were obtained:
recombinant human PILRB = recombinant human PILRB (human, UniProt Q9UKJ0 20-191); experiment: SPR, Carterra LSA, steady-state fit
recombinant human PILRA = recombinant human PILRA (human, UniProt Q9UKJ1 20-197); experiment: SPR, Carterra LSA, antibody amine-coupled, kinetic fit
[1] = molecular target: T1, recombinant cynomolgus PILRA (SEQ ID NO:120) (cynomolgus monkey); experiment: as above
T1 construct: also called cyno PILRA
T1 sequence (chain, as listed by the source limits assumed): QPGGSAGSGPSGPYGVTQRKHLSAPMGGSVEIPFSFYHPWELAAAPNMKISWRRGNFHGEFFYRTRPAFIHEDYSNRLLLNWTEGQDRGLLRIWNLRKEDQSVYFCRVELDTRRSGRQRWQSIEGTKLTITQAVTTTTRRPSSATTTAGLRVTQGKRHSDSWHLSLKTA

[2] = molecular target: T2, human PILRB on HEK293F cells (human, UniProt Q9UKJ0 20-227); experiment: hB Kd of Table 9; method not stated (Example 8: HEK293F overexpressing cells, FACS)
T2 construct: also called hB
T2 sequence (Q9UKJ0 20-227): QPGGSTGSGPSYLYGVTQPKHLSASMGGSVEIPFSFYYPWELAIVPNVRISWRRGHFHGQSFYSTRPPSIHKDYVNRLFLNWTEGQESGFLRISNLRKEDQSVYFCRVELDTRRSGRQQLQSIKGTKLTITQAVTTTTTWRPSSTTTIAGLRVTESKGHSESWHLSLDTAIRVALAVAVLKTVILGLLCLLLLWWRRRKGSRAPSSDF

[3] = molecular target: T3, cell surface PILRA on human monocytes (human, UniProt Q9UKJ1 20-303); experiment: flow cytometry; Alexa Fluor 647-conjugated antibody on human CD14+ monocytes (second donor sample), Fc receptors blocked, 30 min on ice
T3 construct: Native PILRA on CD14+ monocytes of healthy donors; also called human PILRA; hu mono
T3 sequence (Q9UKJ1 20-303): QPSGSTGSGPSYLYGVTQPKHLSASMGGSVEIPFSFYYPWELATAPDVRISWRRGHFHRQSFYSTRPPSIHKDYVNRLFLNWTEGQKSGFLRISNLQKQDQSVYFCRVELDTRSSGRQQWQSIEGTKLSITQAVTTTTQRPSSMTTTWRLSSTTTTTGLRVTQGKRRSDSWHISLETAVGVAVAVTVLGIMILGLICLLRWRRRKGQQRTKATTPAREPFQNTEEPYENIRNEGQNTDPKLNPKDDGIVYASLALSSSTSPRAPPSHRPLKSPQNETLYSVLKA
Experimental: Anti-human PILRA antibodies X0 (PA-29) and its affinity matured variants were tested for their abilities to bind cell surface PILRA on human and cynomolgus monocytes. CD14+ monocytes were isolated from healthy human donors using a RosetteSep Human Monocyte Enrichment Cocktail kit (StemCell). Cynomolgus white blood cells were collected from cynomolgus whole blood. In both human and cynomolgus samples, the Fc receptor on the tested monocytes was blocked and the monocytes were treated with Alexa Fluor 647-conjugated PILRA antibodies for 30 minutes on ice. A dose response curve of antibodies X0 (PA-29), X1, X2, X7, X11, X12, X13, X14, X16, X18, and X20 was tested for binding to cell surface PILRA in human and cynomolgus monocytes, and antibodies bound to PILRA in a dose response manner. In another sample of human donor monocytes, a dose response curve of antibodies X0 (PA-29), X1, X2, X11, X13, X18, X29 (PA-43), and X34 (A6) was tested for binding to cell surface PILRA in human and cynomolgus monocytes, and antibodies bound to PILRA in a dose response manner.

recombinant human PILRB, sequence (Q9UKJ0 20-191 limits assumed): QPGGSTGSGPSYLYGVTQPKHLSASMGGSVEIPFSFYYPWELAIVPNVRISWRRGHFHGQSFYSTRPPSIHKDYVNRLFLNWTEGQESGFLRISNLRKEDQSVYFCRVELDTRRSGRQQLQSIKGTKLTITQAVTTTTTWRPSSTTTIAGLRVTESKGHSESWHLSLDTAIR
recombinant human PILRA, sequence (Q9UKJ1 20-197 limits assumed): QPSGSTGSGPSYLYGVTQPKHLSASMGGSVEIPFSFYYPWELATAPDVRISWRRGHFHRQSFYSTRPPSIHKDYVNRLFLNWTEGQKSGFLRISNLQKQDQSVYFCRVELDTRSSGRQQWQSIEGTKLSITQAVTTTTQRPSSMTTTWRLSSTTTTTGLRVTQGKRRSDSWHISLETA

Kd (recombinant human PILRB): 18 nM
Kd (recombinant human PILRA): 1.1 nM
Kd [1]: 0.3 nM
Kd [2]: 51.5 nM
EC50 (read off the curve) [3]: ~0.1 µg/mL
B1: X13 (antibody, human IgG4, V domains shown)
VH: QVQLVQSGAEVKKPGSSVKVSCKASGYNFLHYDVNWVRQAPGQGLEWMGGIIPIFGTANYAQKFQGRVTITADESTSTAYMELSSLRSEDTAVYYCATAVGAGWFDPWGQGTLVTVSS
VL: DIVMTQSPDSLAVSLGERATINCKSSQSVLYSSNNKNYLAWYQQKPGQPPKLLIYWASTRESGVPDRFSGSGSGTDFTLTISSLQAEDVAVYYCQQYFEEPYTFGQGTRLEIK
notes: conditioned media in the HEK293F assays
